The values below come from article PMC5821319.

A short description of data set [1]: cell surface flow cytometry, mAb BH026, Expi293. The settings on record: control: unmutated MeV-H genotype A. On the technique in general: A flow cytometer gives signals particle by particle.
Data set [2] in a line: Western blot of transfected Vero cell lysates (total). The settings on record: control: unmutated MeV-H genotype A. In general terms: In western blotting, separated proteins are transferred to a membrane and probed.

B1: MeV-H genotype A (measles virus envelope hemagglutinin protein): N200D (protein)
parent chain: MSPQRDRINAFYKDNPHPKGSRIVINREHLMIDRPYVLLAVLFVMFLSLIGLLAIAGIRLHRAAIYTAEIHKSLSTNLDVTNSIEHQVKDVLTPLFKIIGDEVGLRTPQRFTDLVKLISDKIKFLNPDREYDFRDLTWCINPPERIKLDYDQYCADVAAEELMNALVNSTLLETRTTNQFLAVSKGNCSGPTTIRGQFSNMSLSLLDLYLGRGYNVSSIVTMTSQGMYGGTYLVEKPNLSSKRSELSQLSMYRVFEVGVIRNPGLGAPVFHMTNYLEQPVSNDLSNCMVALGELKLAALCHGEDSITIPYQGSGKGVSFQLVKLGVWKSPTDMQSWVPLSTDDPVIDRLYLSSHRGVIADNQAKWAVPTTRTDDKLRMETCFQQACKGKIQALCENPEWAPLKDNRIPSYGVLSVDLSLTVELKIKIASGFGPLITHGSGMDLYKSNHNNVYWLTIPPMKNLALGVINTLEWIPRFKVSPYLFTVPIKEAGEDCHAPTYLPAEVDGDVKLSSNLVILPGQDLQYVLATYDTSRVEHAVVYYVYSPSRSFSYFYPFRLPIKGVPIELQVECFTWDQKLWCRHFCVLADSESGGHITHSGMVGMGVSCTVTREDGTNRR
Consider B1, for which the expression_or_secretion entry in data set [1] (glycan lost) and in data set [2] (glycan lost) was “decreases” each time.

B2: MeV-H genotype A (measles virus envelope hemagglutinin protein): D416N (protein)
parent chain: MSPQRDRINAFYKDNPHPKGSRIVINREHLMIDRPYVLLAVLFVMFLSLIGLLAIAGIRLHRAAIYTAEIHKSLSTNLDVTNSIEHQVKDVLTPLFKIIGDEVGLRTPQRFTDLVKLISDKIKFLNPDREYDFRDLTWCINPPERIKLDYDQYCADVAAEELMNALVNSTLLETRTTNQFLAVSKGNCSGPTTIRGQFSNMSLSLLDLYLGRGYNVSSIVTMTSQGMYGGTYLVEKPNLSSKRSELSQLSMYRVFEVGVIRNPGLGAPVFHMTNYLEQPVSNDLSNCMVALGELKLAALCHGEDSITIPYQGSGKGVSFQLVKLGVWKSPTDMQSWVPLSTDDPVIDRLYLSSHRGVIADNQAKWAVPTTRTDDKLRMETCFQQACKGKIQALCENPEWAPLKDNRIPSYGVLSVDLSLTVELKIKIASGFGPLITHGSGMDLYKSNHNNVYWLTIPPMKNLALGVINTLEWIPRFKVSPYLFTVPIKEAGEDCHAPTYLPAEVDGDVKLSSNLVILPGQDLQYVLATYDTSRVEHAVVYYVYSPSRSFSYFYPFRLPIKGVPIELQVECFTWDQKLWCRHFCVLADSESGGHITHSGMVGMGVSCTVTREDGTNRR
In the case of B2, the expression_or_secretion result in data set [1] (glycan gained) and in data set [2] (glycan gained) was “no change” in each case.
